Experimental findings from the Human Domainome abundance scans (Beltran et al. 2025) are described below.

± gives the uncertainty stated by the source.

B1: Peroxisome proliferator-activated receptor delta, residues 71 to 145; numbered along this chain, Q03181 (parent)
chain: NMECRVCGDKASGFHYGVHACEGCKGFFRRTIRMKLEYEKCERSCKIQKKNRNKCQYCRFQKCLALGMSHNAIRF

This data set covers variants of B1. Put plainly: abundance fitness (aPCA) (normalised: wild type 0, dead -1); higher = more abundant; growth selection in yeast, the domain comes from the species named. Particulars: Homo sapiens.
Consider N71Y, for which the abundance fitness was -0.337 ± 0.089.

As to N71K, the abundance fitness is -0.127 ± 0.051.

As to N71D, the abundance fitness came to 0.103 ± 0.064.

With N71H, the abundance fitness was -0.173 ± 0.074.

With S69H, the abundance fitness is -0.045 ± 0.089.

Regarding S69W, the abundance fitness was -0.191 ± 0.059.

With S69F, the abundance fitness was -0.268 ± 0.075.

Turning to K40G, the abundance fitness was -0.472 ± 0.045.

As to K40M, the abundance fitness is -0.09 ± 0.053.

Consider K40E, for which the abundance fitness is -0.113 ± 0.046.

With K40N, the abundance fitness is -0.225 ± 0.093.

As to K40C, the abundance fitness was -0.216 ± 0.074.

For E42F, the abundance fitness was -0.139 ± 0.089.

E42M: the abundance fitness was -0.051 ± 0.054.

For E42W, the abundance fitness was -0.295 ± 0.049.

With E42K, the abundance fitness was -0.209 ± 0.063.

With E42V, the abundance fitness was -0.074 ± 0.035.

With G17D, the abundance fitness is -0.15 ± 0.058.

Take G17H: the abundance fitness was -0.682 ± 0.17.

As for G17M, the abundance fitness is -0.158 ± 0.076.

For the variant G17W, the abundance fitness was -0.918 ± 0.13.

With G17L, the abundance fitness was -0.692 ± 0.074.

Take G17N: the abundance fitness was -0.238 ± 0.1.

Take G17V: the abundance fitness was -0.647 ± 0.078.

With E39A, the abundance fitness is -0.057 ± 0.036.

For the variant E39Y, the abundance fitness was -0.447 ± 0.1.

For E39G, the abundance fitness is -0.221 ± 0.033.

Regarding E39C, the abundance fitness is -0.586 ± 0.13.

For Y38V, the abundance fitness was -0.74 ± 0.091.

Take Y38P: the abundance fitness is -0.758 ± 0.1.

As for Y38L, the abundance fitness was -0.544 ± 0.077.

Regarding Y38R, the abundance fitness is -0.846 ± 0.075.

Consider Y38Q, for which the abundance fitness was -1.02 ± 0.26.

On to Y38N, for which the abundance fitness is -0.72 ± 0.23.

For G23C, the abundance fitness turned out to be 0.071 ± 0.053.

For G23T, the abundance fitness was -0.203 ± 0.055.

Consider G23Q, for which the abundance fitness was -0.009 ± 0.049.

Take G23H: the abundance fitness was 0.26 ± 0.088.

As to G23K, the abundance fitness is -0.034 ± 0.062.

For G23V, the abundance fitness was -0.325 ± 0.052.

As for G23N, the abundance fitness was found to be 0.109 ± 0.078.

On to F60C, for which the abundance fitness is -0.84 ± 0.16.

Take F60W: the abundance fitness was -0.003 ± 0.047.

With F60R, the abundance fitness is -0.798 ± 0.084.

Consider F60Q, for which the abundance fitness was -1.04 ± 0.21.

As to F60E, the abundance fitness was -1.03 ± 0.17.

Turning to F60K, the abundance fitness was -0.742 ± 0.21.

As to M2S, the abundance fitness is -0.305 ± 0.056.

For M2K, the abundance fitness is -0.249 ± 0.082.

Turning to M2A, the abundance fitness was -0.526 ± 0.091.

With M2V, the abundance fitness was -0.155 ± 0.051.

Turning to K50M, the abundance fitness worked out at 0.034 ± 0.054.

For the variant K50V, the abundance fitness is -0.129 ± 0.041.

For the variant K50P, the abundance fitness is -0.089 ± 0.071.

With K50T, the abundance fitness is -0.018 ± 0.051.

On to K50D, for which the abundance fitness came out at 0.094 ± 0.059.

As for K50I, the abundance fitness turned out to be 0.132 ± 0.095.

Take F27G: the abundance fitness is -0.789 ± 0.076.

On to F27P, for which the abundance fitness is -0.876 ± 0.14.

On to F27A, for which the abundance fitness was -0.934 ± 0.12.

For the variant F27Y, the abundance fitness is -1.06 ± 0.31.

In the case of A20R, the abundance fitness was -0.707 ± 0.11.

With A20D, the abundance fitness was -0.99 ± 0.35.

In the case of A20F, the abundance fitness is 0.145 ± 0.13.

On to Q61Y, for which the abundance fitness was -0.227 ± 0.12.

Regarding Q61E, the abundance fitness was -0.037 ± 0.041.

For the variant Q61F, the abundance fitness was -0.909 ± 0.3.

For the variant Q61W, the abundance fitness is -0.699 ± 0.094.

For the variant Q61H, the abundance fitness is -0.248 ± 0.092.

Regarding Q61G, the abundance fitness is -0.639 ± 0.055.

For the variant Q61P, the abundance fitness was -0.666 ± 0.12.

On to Q61M, for which the abundance fitness was -0.061 ± 0.053.

Turning to Q61V, the abundance fitness was -0.243 ± 0.039.

As for A72C, the abundance fitness is -0.126 ± 0.063.

For the variant A72M, the abundance fitness is 0.019 ± 0.059.

Take A72I: the abundance fitness was -0.297 ± 0.1.

Consider A72S, for which the abundance fitness turned out to be 0.052 ± 0.04.

Take A72H: the abundance fitness worked out at 0.047 ± 0.069.

For the variant A72Y, the abundance fitness was -0.156 ± 0.09.

For R29F, the abundance fitness turned out to be 0.142 ± 0.095.

As to R29K, the abundance fitness was found to be 0.026 ± 0.06.

As for R74I, the abundance fitness was determined as 0.001 ± 0.11.

Take R74M: the abundance fitness is 0.004 ± 0.081.

As to K49M, the abundance fitness was -0.065 ± 0.17.

For the variant K49H, the abundance fitness stood at 0.602 ± 0.38.

Consider K49G, for which the abundance fitness came to 0.202 ± 0.13.

Consider C21T, for which the abundance fitness is -0.83 ± 0.1.

On to C21H, for which the abundance fitness is -0.714 ± 0.17.

For C21Y, the abundance fitness is -0.599 ± 0.15.

Take C21E: the abundance fitness is -0.847 ± 0.15.

Take C21G: the abundance fitness was -0.633 ± 0.067.

C21I: the abundance fitness was -0.608 ± 0.17.

In the case of F28I, the abundance fitness is -1.23 ± 0.49.

Regarding F28P, the abundance fitness is -0.406 ± 0.077.

For the variant F28L, the abundance fitness is -0.842 ± 0.11.

Consider F28D, for which the abundance fitness was -0.845 ± 0.2.

For the variant E37M, the abundance fitness was -0.164 ± 0.053.

In the case of E37L, the abundance fitness is -0.16 ± 0.045.

E37G: the abundance fitness is -0.319 ± 0.044.

Take I32F: the abundance fitness is -0.185 ± 0.092.

Turning to I32P, the abundance fitness was -0.869 ± 0.14.

In the case of I32L, the abundance fitness was -0.095 ± 0.043.

Consider E22I, for which the abundance fitness is -0.176 ± 0.087.

Take E22G: the abundance fitness was -0.341 ± 0.05.

With E22R, the abundance fitness was -0.293 ± 0.041.

For S12T, the abundance fitness was -0.06 ± 0.048.

As to S12F, the abundance fitness was -0.115 ± 0.086.

For S12E, the abundance fitness is -0.123 ± 0.052.

As for D9V, the abundance fitness was -0.331 ± 0.048.

In the case of D9K, the abundance fitness is -0.548 ± 0.12.

Consider D9T, for which the abundance fitness was -0.327 ± 0.067.

With A65P, the abundance fitness was -0.819 ± 0.14.

Take A65E: the abundance fitness was -0.003 ± 0.042.

As to A65Q, the abundance fitness is -0.001 ± 0.052.

On to A65K, for which the abundance fitness was -0.073 ± 0.048.

With A65W, the abundance fitness was -0.231 ± 0.049.

Regarding A65C, the abundance fitness is -0.295 ± 0.083.

In the case of K62S, the abundance fitness is -0.645 ± 0.092.

For the variant K62M, the abundance fitness is -0.328 ± 0.076.

Take K62R: the abundance fitness is -0.193 ± 0.041.

Consider K62V, for which the abundance fitness is -0.569 ± 0.078.

K62P: the abundance fitness was -0.824 ± 0.12.

C63S: the abundance fitness is -0.905 ± 0.11.

Turning to C63K, the abundance fitness was -0.791 ± 0.14.

For the variant C63W, the abundance fitness was -0.88 ± 0.13.

Regarding C63Y, the abundance fitness is -0.232 ± 0.078.

Turning to C63M, the abundance fitness was -0.063 ± 0.06.

In the case of R59H, the abundance fitness is -0.005 ± 0.078.

With R59A, the abundance fitness was -0.459 ± 0.062.

For the variant R59L, the abundance fitness came to 0.098 ± 0.035.

For R59F, the abundance fitness was -0.042 ± 0.079.

Regarding R59E, the abundance fitness was -0.933 ± 0.16.

With R5T, the abundance fitness is -0.018 ± 0.043.

For the variant R5L, the abundance fitness came to 0.003 ± 0.037.

For the variant R5Y, the abundance fitness is -0.085 ± 0.088.

With R5V, the abundance fitness came to 0.091 ± 0.035.

In the case of R5M, the abundance fitness came out at 0.067 ± 0.048.

As for R5H, the abundance fitness was -0.257 ± 0.1.

As to R5W, the abundance fitness is -0.118 ± 0.047.

In the case of R5K, the abundance fitness came to 0.139 ± 0.05.

In the case of F14P, the abundance fitness is -0.14 ± 0.051.

Turning to F14R, the abundance fitness is -0.138 ± 0.035.

Take F14K: the abundance fitness is 0.006 ± 0.054.

Take F14W: the abundance fitness is -0.118 ± 0.052.

Turning to M68P, the abundance fitness was -0.64 ± 0.11.

Turning to M68W, the abundance fitness is -0.148 ± 0.049.

For the variant K25D, the abundance fitness was -0.048 ± 0.056.

Consider K25A, for which the abundance fitness was determined as 0.122 ± 0.036.

Take K25E: the abundance fitness amounted to 0.142 ± 0.04.

Regarding K25G, the abundance fitness was found to be 0.178 ± 0.031.

For the variant G67E, the abundance fitness was -0.525 ± 0.091.

Regarding G67L, the abundance fitness is -0.808 ± 0.091.

Consider G67M, for which the abundance fitness was -0.497 ± 0.097.

In the case of G67N, the abundance fitness was -0.36 ± 0.1.

Turning to G67F, the abundance fitness is -0.459 ± 0.14.

For F75R, the abundance fitness came to 0.066 ± 0.054.

As to F75E, the abundance fitness worked out at 0.088 ± 0.09.

F75W: the abundance fitness worked out at 0.176 ± 0.12.

With F75G, the abundance fitness is 0.218 ± 0.047.

In the case of F75N, the abundance fitness is -0.021 ± 0.094.

On to F75C, for which the abundance fitness came to 0.193 ± 0.064.

Consider F75L, for which the abundance fitness came to 0.128 ± 0.05.

Consider F75S, for which the abundance fitness was determined as 0.216 ± 0.049.

C41A: the abundance fitness was -1 ± 0.27.

Regarding C41E, the abundance fitness was -0.729 ± 0.19.

Turning to C41H, the abundance fitness is -0.361 ± 0.24.

Consider C41F, for which the abundance fitness is -0.398 ± 0.3.
